From publication PMC4406585

B1: anti-GBB5-H9 scFv-Fc (Fc fusion)
VH: EVQLVQSGGGLVQPGGSLRLSCAASGFTVSSNYMSWVRQAPGKGLEWVSSISSSSSYIYYADSVKGRFTISRDNAKNSLYLQMNSLRAEDTAVYYCARSYPFDYWGQGTLVTVSS
VL: NFMLTQPHSVSESPGKAVTISCTGSSGDVARNYVQWYQQRPGSAPIIVIYEDTQRPSGVPDRFSGSIDSSSNSASLTISGLTTEDEADYYCQSYDGHNVIFGGGTKLTVL

Biological target: anti-GBB5-A1 scFv
Assay: ELISA
Conditions: chain shown with the change; biotinylated peptides immobilized in streptavidin-coated microtiter plate wells; soluble scFv protein; parent: est. 100; read off a plot

Chain of anti-GBB5-A1 scFv (chain, as listed by the source, chain 1 of 2): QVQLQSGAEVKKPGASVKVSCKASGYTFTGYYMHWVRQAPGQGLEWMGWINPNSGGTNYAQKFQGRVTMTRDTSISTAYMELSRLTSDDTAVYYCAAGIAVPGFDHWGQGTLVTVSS
Chain of anti-GBB5-A1 scFv (chain, as listed by the source, chain 2 of 2): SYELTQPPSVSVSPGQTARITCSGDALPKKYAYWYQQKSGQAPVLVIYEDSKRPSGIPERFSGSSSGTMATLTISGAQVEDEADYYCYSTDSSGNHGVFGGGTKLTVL

**Q.** With GSGSKLHDVELHQAAERV [GBB5 peptide (Guanine Nucleotide-Binding Protein Beta 5) V14A] as the binder, how does the percent of parent (% signal of wild type) read?
**A.** 51

**Q.** How did the percent of parent (% signal of wild type) turn out when GSGSALHDVELHQVAERV [GBB5 peptide (Guanine Nucleotide-Binding Protein Beta 5) K1A] was run?
**A.** 0.2

**Q.** With GSGSKLHDVELHQVAEAV [GBB5 peptide (Guanine Nucleotide-Binding Protein Beta 5) R13A] as the binder, how does the percent of parent (% signal of wild type) read?
**A.** 56

**Q.** How did the percent of parent (% signal of wild type) turn out when GSGSKLHAVELHQVAERV [GBB5 peptide (Guanine Nucleotide-Binding Protein Beta 5) D4A] was run?
**A.** 0.3

Biological target: anti-GBB5-H9 scFv
Assay: ELISA
Conditions: chain shown with the change; biotinylated peptides immobilized in streptavidin-coated microtiter plate wells; soluble scFv protein; parent: est. 100; read off a plot

**Q.** GSGSKLHDVELHQAAERV [GBB5 peptide (Guanine Nucleotide-Binding Protein Beta 5) V14A] was tested. Which percent of parent (% signal of wild type) did it give?
**A.** 55

**Q.** Which percent of parent (% signal of wild type) does the source give for GSGSALHDVELHQVAERV [GBB5 peptide (Guanine Nucleotide-Binding Protein Beta 5) K1A] here?
**A.** 74

**Q.** With GSGSKLHDVELHQVAEAV [GBB5 peptide (Guanine Nucleotide-Binding Protein Beta 5) R13A] as the binder, how does the percent of parent (% signal of wild type) read?
**A.** 1.7

**Q.** With GSGSKLHAVELHQVAERV [GBB5 peptide (Guanine Nucleotide-Binding Protein Beta 5) D4A] as the binder, how does the percent of parent (% signal of wild type) read?
**A.** 1.9

Biological target: anti-GBB5-H9 scFv-Fc (human)
Assay: SEC; size exclusion chromatography and denaturing SDS-PAGE of the purified scFv-Fc; conditions not given
Conditions: not given

**Q.** How did the stoichiometry N turn out when B1 was run?
**A.** 2
